± gives the standard deviation of the averaged measurements.
Tested on: ATP
Experiment: switch fluorescence ratio, 500 uM ATP over buffer (Cy3 cluster intensity, sum of 5 cycles each) (fold (ratio)); higher = stronger signal-on switching upon ATP binding; sequences stand for … in TCGTCGGCAGCGTCAGATGTGTATAAGAGACAGTTTTTTTTTTTTTTTTTTTTTTTTT…TC
Settings: aptamer strand: ATP DNA aptamer (quencher-CACCTGGGGGAGTATTGCGGAGGAAGG + anchor), 100 nM annealed; ATP concentration: 500 uM
In short: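 The fluorescence ratio divides summed target-cycle Cy3 intensity by summed buffer-cycle Cy3 intensity for each cluster and is averaged per switch-domain sequence. Cy3-labelled switching-strand clusters on a modified Illumina MiSeq flow-cell were annealed to 100 nM quencher-labelled ATP aptamer, then imaged in selection buffer and again after 15 min with 500 uM ATP at 22 °C. Five such cycles were run, with NaOH stripping and re-annealing between them, and clusters outside 100-1000 RFU were excluded.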
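Also: ATP exposure 15 min at 22 °C before imaging.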

Sequence | switch fluorescence ratio
AAACAGTTAT | 1.03 ± 0.042
GTGTTTATGC | 0.991 ± 0.0044
GAGGGGCTGG | 0.984 ± 0.046
ATATACTAAT | 1.02 ± 0.038
CGCGGATTCT | 1.04 ± 0.021
CTGTAATGTT | 0.992 ± 0.011
AGGTGTTTTT | 1.03 ± 0.032
AGCGAATATT | 1.08 ± 0.098
GAATTAAAGT | 0.9823 ± 0.0041
TGGGTTAGAG | 0.9878 ± 0.0052
TGGGGGTAGT | 0.99 ± 0.022
TACGGGAGCC | 1.01 ± 0.025
GGGGAAGTAT | 0.985 ± 0.014
GACTATGGTT | 0.986 ± 0.051
ATAACAAATT | 1.03 ± 0.031
AGTCCAAGGC | 1.02 ± 0.065
AAAAAGGGGA | 1 ± 0.032
TTATTAGATT | 1.01 ± 0.005
AATTAGTTGC | 0.989 ± 0.016
GGTAGACTTT | 0.967 ± 0.017
TTAGGTAGTG | 0.9667 ± 0.0047
CGAATCGGTA | 0.969 ± 0.00014
TAGGGTACCG | 1.06 ± 0.032
TTTTATAGCG | 0.99918 ± 0.00023
GAGCTAGGAA | 0.981 ± 0.058

Sequence | switch fluorescence ratio
TGAGTTGGTT | 0.973 ± 0.026
CGATCGGATT | 1.01 ± 0.017
ACGTCCCGGG | 1.09 ± 0.015
CGTCTTAAAG | 1 ± 0.036
GGGGTTATTT | 0.988 ± 0.038
AAAATGCGAG | 1 ± 0.0062
ATTCGCCGGT | 0.959 ± 0.0066
TTTCCGTGAG | 1.63 ± 0.98
TTTCAGAAGG | 1.01 ± 0.023
TTTTGCTGGG | 1.03 ± 0.11
AGGGATCCTA | 0.978 ± 0.012
TTAATTTGTT | 0.988 ± 0.042
TGATTGGGTT | 0.975 ± 0.022
GAGATAGTGT | 0.991 ± 0.036
CATATATTCT | 0.977 ± 0.033
TATCTAAAAC | 1.001 ± 0.0032
TTAGTTTCGG | 1.01 ± 0.019
TTTCTAGGTC | 1.015 ± 0.0048
TAATGAATTC | 1.003 ± 0.0081
TTGGTCTTGT | 1.001 ± 0.006
GATTGGTGGG | 1.003 ± 0.0041
ACGGCTGTTA | 1.012 ± 0.0046
CGGGTCTGTT | 0.979 ± 0.047
GGTTTAATCG | 1.01 ± 0.046
ATTTTGCTCT | 1.02 ± 0.026

Sequence | switch fluorescence ratio
GGAGCATGGG | 1.19 ± 0.04
AGGCCGTATT | 1 ± 0.029
GGTGGGAGCA | 1.04 ± 0.034
GGGTTTCGAG | 1.04 ± 0.016
TGGGTAAGCA | 1.03 ± 0.023
ATAGCTATAA | 1.003 ± 0.0029
TTACTAGGCG | 1.01 ± 0.053
GAAAAATTTT | 1.02 ± 0.026
TGAGGGGGAC | 1.02 ± 0.087
GCTTCTATGC | 1.02 ± 0.037
CAGCCTTATT | 0.997 ± 0.029
TTTATCCGAG | 1.04 ± 0.042
TACTTTATTA | 1.019 ± 0.0035
GGATCAAAAG | 1.01 ± 0.018
CGGTTGTACC | 1.007 ± 0.0079
TGGTAGACGT | 0.968 ± 0.016
TTGTTGTGCT | 0.961 ± 0.033
TCGTGCGCTG | 0.997 ± 0.079
TTTGGGCATT | 1.04 ± 0.035
GAAAATTATG | 1.009 ± 0.0086
TATTAACATC | 1.04 ± 0.014
AGGGTCGGCG | 1.01 ± 0.027
TTGGTTTCTT | 1.01 ± 0.023
GCGAGGTCGA | 0.991 ± 0.038
GAGCGATGGT | 1.12 ± 0.021

Sequence | switch fluorescence ratio
GCTAGAGGGG | 1.02 ± 0.048
ATGGGGCACT | 0.9789 ± 0.0042
CAAGGGGGGT | 1 ± 0.019
ATTTCGTCGA | 0.991 ± 0.019
TCCGGAGGGT | 1.05 ± 0.06
GTACGTAGGC | 1.03 ± 0.06
AGGCTAAAGG | 1 ± 0.026
GCGAGCGATG | 0.9988 ± 0.0062
GTGCTTAATG | 0.975 ± 0.011
ACACTTAAGT | 1.02 ± 0.029
ATAGGTTGTT | 0.973 ± 0.016
CCAAGGGCTG | 1.15 ± 0.19
TTTCACTTTT | 0.991 ± 0.032
ATAATTGGGA | 0.99 ± 0.041
CTTGGACGGG | 0.9706 ± 0.0021
AGGGGTATGC | 0.979 ± 0.033
TGGGGTTTGG | 0.984 ± 0.036
CGGCAGAAAT | 0.967 ± 0.022
GAGCTGTATG | 1.03 ± 0.014
TCCAGAGCGG | 1.34 ± 0.47
GATGGCGGGC | 1.01 ± 0.013
TTAAAAATAC | 1.06 ± 0.025
GACTGTTCGG | 0.985 ± 0.025
TTGGTGTACT | 1.01 ± 0.019
ACGCTAATGT | 1.35 ± 0.23

Sequence | switch fluorescence ratio
ATGACAGCGG | 1.01 ± 0.11
GCGGGTGGAT | 1.01 ± 0.053
GTGGTGGGGC | 0.955 ± 0.03
GGCAAAACAG | 0.996 ± 0.032
GATTTAGGTT | 0.999 ± 0.015
GCCGTCTCCC | 1.03 ± 0.047
TTCCATGAGT | 0.963 ± 0.019
ATGTTTCGC | 0.999 ± 0.045
CGTGAGGGGT | 0.994 ± 0.026
CTCTTGAGCC | 1.01 ± 0.044
AAACTGGATG | 0.9783 ± 0.0039
TGAGCCCACG | 1.027 ± 0.0039
AGAATGAGGT | 0.98 ± 0.03
AGCAATTGGT | 1.062 ± 0.0086
CACGTGTGGT | 0.988 ± 0.036
ATACTCCGGA | 1.16 ± 0.055
TGGTGCAGCT | 1.005 ± 0.0059
CCAGAGGAAC | 0.948 ± 0.019
ATCAAAACGT | 1.04 ± 0.043
AAGGTTCCTG | 0.98 ± 0.03
TTTTATGGTG | 0.994 ± 0.019
AATCATGGCG | 0.991 ± 0.07
GAATCAGGGG | 1.11 ± 0.012
CCAGACATGA | 1.02 ± 0.012
AGGGTACCTG | 1.01 ± 0.015

Sequence | switch fluorescence ratio
TCAGGTGTTT | 1.56 ± 0.51
ATTTGGGCAT | 0.994 ± 0.029
CTTGTTAGTA | 0.987 ± 0.027
CAGGGGTTGT | 1.21 ± 0.31
TGTGGTATGG | 1.008 ± 0.0065
AACGGACTTA | 1.25 ± 0.044
ACCTGGACCT | 1.33 ± 0.032
TGGTGGTTCT | 0.987 ± 0.029
TATGGGAAGA | 0.985 ± 0.027
TGATCAGGAG | 0.9853 ± 0.0053
GTCATCGGCC | 0.996 ± 0.035
CAATCTTGGA | 1 ± 0.012
ACCTTGGTGT | 1.01 ± 0.053
GGGTTATGGT | 0.998 ± 0.028
CTGGACAGTG | 0.956 ± 0.013
GGGAAATTGC | 1.04 ± 0.074
TTTTTATCCA | 0.976 ± 0.026
TTTAATGTTG | 1.014 ± 0.0082
TTTTCCAATA | 1.52 ± 0.13
TTTCGTAAGA | 0.995 ± 0.016
TTATGAGGGT | 0.982 ± 0.015
ATCAAAGGTG | 1.404 ± 0.0027
TAGGATGAAG | 1.03 ± 0.011
ACTTTAGGGT | 1.15 ± 0.12
CCAAGTGGGC | 1.03 ± 0.053

Sequence | switch fluorescence ratio
AGTGACGCGT | 1.007 ± 0.0033
TTGGTATGGG | 1.03 ± 0.044
TATTAATTGC | 0.995 ± 0.025
GGGTTCTTGT | 1.04 ± 0.057
CATGGAGGGG | 0.9617 ± 0.0061
TTGCATAGTG | 0.9536 ± 0.0026
GGTGTGATTT | 1 ± 0.025
TTTATGAGCA | 0.998 ± 0.035
CGAGGGGGA | 1.0066 ± 0.00091
ATTAGTTGGA | 0.99 ± 0.024
TTTATTCTAT | 1.02 ± 0.011
TTGGATTCCC | 0.977 ± 0.064
TAAGGGTTTA | 1.06 ± 0.1
TCTGTGACTA | 1.06 ± 0.044
ATAGATATAG | 1.027 ± 0.0096
TGATGGGTGC | 1.04 ± 0.045
CAAAGGGGGT | 1 ± 0.016
ATCAACGGTG | 1.01 ± 0.044
TAGGAACAGC | 0.98 ± 0.012
AAAGTGTTTT | 0.995 ± 0.051
CCGCTTGGTT | 1.23 ± 0.028
TCCAGGGTTA | 1.031 ± 0.0058
GGGCCCAAAG | 1 ± 0.021
AATGCATCTA | 0.989 ± 0.025
TATGTGAGCT | 1.01 ± 0.024

Sequence | switch fluorescence ratio
TGGTATTTTG | 0.977 ± 0.024
GTTAGGGGGA | 1 ± 0.011
AAGGGGCTTA | 0.961 ± 0.013
TTAGATACAT | 1 ± 0.019
AAGGGGGGTG | 1.03 ± 0.048
AAACCGGGGT | 1.66 ± 0.94
TAAATAGTTT | 0.993 ± 0.013
CGTGAGTGGT | 1.018 ± 0.0037
AGAATGGCAG | 0.991 ± 0.029
TTTTCCTATG | 0.977 ± 0.019
AAAGAGTGCG | 1 ± 0.042
TTTGGATTCC | 0.998 ± 0.034
CTGCTTAAGG | 1.04 ± 0.065
TTTCGTAGAG | 1 ± 0.011
ATTGCTAGGG | 1.03 ± 0.023
GAAATCGTTC | 1.02 ± 0.019
TCAAGGATGT | 1 ± 0.032
TTTACTTGGG | 0.9767 ± 0.0077
AAGGGAGTCA | 0.992 ± 0.031
GATTCCGAGC | 1.44 ± 0.53
CATCTTAGCT | 1.035 ± 0.0054
ACCCATCTGT | 0.979 ± 0.013
GCAGGGATTG | 0.9734 ± 0.0058
CTGTTCATTG | 0.9807 ± 0.0037
TAGCGCGGGA | 1 ± 0.016
